# Values of other authors, collected in paper PMC7496540.
# Key:
# [1] = target: λ exonuclease (Escherichia phage lambda) (UniProt P03697)
# [2] = target: SSB C-terminal peptide C-terminal nine residues (Escherichia coli) (UniProt P0AGE0)
# Chain of UniProt P0AGE0 (P0AGE0 whole entry, looked up): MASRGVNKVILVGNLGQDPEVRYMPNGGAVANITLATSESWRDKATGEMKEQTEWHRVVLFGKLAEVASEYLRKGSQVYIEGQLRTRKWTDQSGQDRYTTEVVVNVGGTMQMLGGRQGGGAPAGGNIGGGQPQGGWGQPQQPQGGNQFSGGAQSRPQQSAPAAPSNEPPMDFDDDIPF
# Chain of UniProt P03697 (P03697 whole entry): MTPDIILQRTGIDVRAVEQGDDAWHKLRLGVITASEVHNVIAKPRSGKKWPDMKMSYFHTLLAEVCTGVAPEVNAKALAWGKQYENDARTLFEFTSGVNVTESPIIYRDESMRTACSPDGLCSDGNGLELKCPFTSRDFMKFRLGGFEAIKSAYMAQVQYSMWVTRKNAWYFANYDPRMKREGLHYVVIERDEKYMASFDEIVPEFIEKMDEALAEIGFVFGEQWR
substance,measurement,setting,value
Redβ (from UniProt P03698),Kd,[1],7.9 µM
same,Kd,[2],10 µM
